Patent US20090148464A1

Target: His-tagged recombinant MIF (macrophage migration inhibitory factor), expressed in Escherichia coli from pQE30
Assay: SPR, BIAcore 2000, His-tagged MIF on Sensor Chip NTA, TRX as analyte, 1:1 binding with drifting baseline model

His-tagged recombinant MIF (macrophage migration inhibitory factor), expressed in Escherichia coli from pQE30, sequence (P14174 2-115): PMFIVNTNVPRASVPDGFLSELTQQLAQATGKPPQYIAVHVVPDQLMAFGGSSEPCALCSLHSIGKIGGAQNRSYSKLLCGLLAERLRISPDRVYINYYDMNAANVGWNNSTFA

Kd: 9.96 nM
kon: 120 M⁻¹ s⁻¹
Substance: Recombinant TRX (Ajinomoto Co., Inc.)
